The record followed here is publication PMC10967448, “ApoE Mimetic Peptide COG1410 Kills Mycobacterium smegmatis via Directly Interfering ClpC’s ATPase Activity” (Antibiotics, 2024).

Square brackets hold non-standard residues; d marks the D form. Ends that are not written are not given here. Aib = CC(C)(N)C(=O)O

Assay [1] deals with T1, ClpC (M. smegmatis AAA+ unfoldase, Clp-ATPase) (M. smegmatis). Description: cell-based or functional assay.
The target of assay [2] is ClpC (S437P) (M. smegmatis). Description: cell-based or functional assay.
In assay [3] the target is T1, ClpC (M. smegmatis AAA+ unfoldase, …). As to the kind of experiment: SPR; Biacore 8K; ClpC or ClpC (S437P) amine-coupled on a CM5 chip at pH 4.0 (around 6500 RU); COG1410 flowed at 125 to 2000 nM (2-fold dilutions); PBS pH 7.4, 0.05% tween-20, 25 °C, 30 μL/min; 1:1 Langmuir binding model. The note with it: both partners purified. A general note: Surface plasmon resonance follows binding to a sensor surface in real time, without labels.

For assay [4], the target named is T2, ClpC (S437P) (M. smegmatis).
T2 construct: also called ClpC variant; ClpC (S437P) variant; source: E. coli BL21 (DE3), pET28a, purified (IMAC on Ni Sepharose 6 FF, desalting)
The assay is described as above. The note with it: both partners purified.

By Kd is commonly meant the equilibrium constant for the complex coming apart. As a reminder, the koff is the first-order rate constant of dissociation. Read a low koff as a long-lived complex. One may read the kon as the rate constant with which the complex forms.

AS[Aib]LRKL[Aib]KRLL (not fully specified (N-terminus, C-terminus)) [COG1410]: in assay [1], the “ATPase activity of purified ClpC (64 nM) with COG1410, dose series; at 10 μM COG1410 against ClpC alone” value is around 3 fold and the “proteolytic activity on FITC-casein in the ClpCP1P2 system with 10 μM COG1410” value worked out at 4 fold. In the assay with ClpC (S437P) [2], the “ATPase activity of purified ClpC (S437P) (64 nM) with 10 μM COG1410 against ClpC alone” value is around 7.4 fold and the “proteolytic activity on FITC-casein in the S437PP1P2 system with COG1410 against the control with ClpC alone” value was around 7 fold. Further, in assay [3], binding was put at a Kd of 2030 nM, the koff is 0.0117 s⁻¹ and the kon came to 5780 M⁻¹ s⁻¹. In the assay with ClpC (S437P) [4], this molecule came in with a Kd of 1310 nM, a koff of 0.0119 s⁻¹ and a kon of 9900 M⁻¹ s⁻¹.
